Assay results as given in article PMC9464592 (Nature, 2022).

Legend:
Assay in all cases: SEC
WDR59 ∆CTD = target: T1, WDR59 ∆CTD (human, UniProt Q6PJI9 1-890)
T1 sequence (looked up): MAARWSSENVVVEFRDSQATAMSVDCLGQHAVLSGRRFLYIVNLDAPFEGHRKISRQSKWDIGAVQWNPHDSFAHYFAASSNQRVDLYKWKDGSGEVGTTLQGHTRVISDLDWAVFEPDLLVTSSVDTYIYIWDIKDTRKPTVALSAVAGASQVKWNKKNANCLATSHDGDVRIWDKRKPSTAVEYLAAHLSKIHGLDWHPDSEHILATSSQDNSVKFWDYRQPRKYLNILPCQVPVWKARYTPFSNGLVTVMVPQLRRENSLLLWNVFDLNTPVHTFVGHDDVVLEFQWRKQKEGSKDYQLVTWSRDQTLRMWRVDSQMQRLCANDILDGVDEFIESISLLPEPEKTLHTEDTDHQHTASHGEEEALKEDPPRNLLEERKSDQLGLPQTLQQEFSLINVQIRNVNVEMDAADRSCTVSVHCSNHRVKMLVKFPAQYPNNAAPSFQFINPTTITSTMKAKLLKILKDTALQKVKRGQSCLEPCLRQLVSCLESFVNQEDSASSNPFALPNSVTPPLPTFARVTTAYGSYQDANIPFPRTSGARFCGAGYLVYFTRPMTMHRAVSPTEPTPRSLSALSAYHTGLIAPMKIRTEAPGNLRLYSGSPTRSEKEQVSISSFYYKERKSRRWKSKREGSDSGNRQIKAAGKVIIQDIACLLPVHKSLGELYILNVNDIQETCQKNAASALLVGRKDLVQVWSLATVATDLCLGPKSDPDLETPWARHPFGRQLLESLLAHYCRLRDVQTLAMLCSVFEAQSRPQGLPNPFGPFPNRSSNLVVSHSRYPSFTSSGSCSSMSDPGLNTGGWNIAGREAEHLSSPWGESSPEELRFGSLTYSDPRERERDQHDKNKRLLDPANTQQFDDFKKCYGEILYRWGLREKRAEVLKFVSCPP

WDR24 ∆CTD = target: T2, WDR24 ∆CTD (human, UniProt Q96S15 1-700)
T2 sequence (looked up): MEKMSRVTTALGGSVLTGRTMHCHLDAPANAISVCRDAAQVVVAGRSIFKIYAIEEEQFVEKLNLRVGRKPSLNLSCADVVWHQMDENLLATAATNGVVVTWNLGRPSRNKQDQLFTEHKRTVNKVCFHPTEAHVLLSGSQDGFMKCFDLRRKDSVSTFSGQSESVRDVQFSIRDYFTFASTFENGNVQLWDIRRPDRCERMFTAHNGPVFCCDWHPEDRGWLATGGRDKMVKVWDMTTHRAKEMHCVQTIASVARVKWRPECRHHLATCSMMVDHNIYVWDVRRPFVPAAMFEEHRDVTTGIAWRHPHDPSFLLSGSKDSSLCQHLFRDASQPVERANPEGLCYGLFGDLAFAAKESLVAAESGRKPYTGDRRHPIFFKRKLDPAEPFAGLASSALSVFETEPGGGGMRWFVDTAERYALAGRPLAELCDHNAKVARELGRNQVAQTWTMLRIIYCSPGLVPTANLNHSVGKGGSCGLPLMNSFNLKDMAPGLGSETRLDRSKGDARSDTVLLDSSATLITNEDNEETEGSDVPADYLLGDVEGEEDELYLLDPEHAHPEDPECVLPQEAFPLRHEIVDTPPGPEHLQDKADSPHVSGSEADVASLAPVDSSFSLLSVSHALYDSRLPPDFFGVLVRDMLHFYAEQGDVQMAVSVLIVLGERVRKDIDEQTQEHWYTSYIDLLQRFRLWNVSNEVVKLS

MIOS A560E = target: T3, MIOS A560E (human, UniProt Q9NXC5 1-875, A560E)
T3 sequence: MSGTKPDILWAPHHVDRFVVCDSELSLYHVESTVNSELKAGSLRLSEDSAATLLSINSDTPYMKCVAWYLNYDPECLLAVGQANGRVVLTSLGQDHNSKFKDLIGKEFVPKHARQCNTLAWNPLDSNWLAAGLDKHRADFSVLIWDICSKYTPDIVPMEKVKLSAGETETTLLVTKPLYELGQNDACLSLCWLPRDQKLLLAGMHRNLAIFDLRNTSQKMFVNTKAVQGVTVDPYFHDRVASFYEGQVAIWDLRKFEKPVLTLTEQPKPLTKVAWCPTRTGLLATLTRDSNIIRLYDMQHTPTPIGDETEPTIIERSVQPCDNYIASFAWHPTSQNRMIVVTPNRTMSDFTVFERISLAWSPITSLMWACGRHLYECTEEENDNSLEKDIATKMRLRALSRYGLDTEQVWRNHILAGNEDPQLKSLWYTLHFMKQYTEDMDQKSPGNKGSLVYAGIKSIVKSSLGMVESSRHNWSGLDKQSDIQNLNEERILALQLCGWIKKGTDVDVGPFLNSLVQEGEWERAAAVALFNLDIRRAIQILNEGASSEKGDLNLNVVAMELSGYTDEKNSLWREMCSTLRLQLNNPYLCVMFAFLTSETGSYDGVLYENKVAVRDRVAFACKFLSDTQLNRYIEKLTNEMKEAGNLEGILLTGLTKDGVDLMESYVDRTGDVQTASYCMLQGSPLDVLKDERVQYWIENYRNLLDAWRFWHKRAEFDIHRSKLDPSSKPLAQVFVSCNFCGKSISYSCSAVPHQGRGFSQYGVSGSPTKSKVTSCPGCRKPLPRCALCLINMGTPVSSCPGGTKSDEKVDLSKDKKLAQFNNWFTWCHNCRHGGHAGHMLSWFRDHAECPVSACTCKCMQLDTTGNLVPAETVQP

binding result (WDR59 ∆CTD): binds | binding result (WDR24 ∆CTD): binds | binding result (MIOS A560E): binds
B1: tag-free SEC13 (natural protein, human)
chain: MVSVINTVDTSHEDMIHDAQMDYYGTRLATCSSDRSVKIFDVRNGGQILIADLRGHEGPVWQVAWAHPMYGNILASCSYDRKVIIWREENGTWEKSHEHAGHDSSVNSVCWAPHDYGLILACGSSDGAISLLTYTGEGQWEVKKINNAHTIGCNAVSWAPAVVPGSLIDHPSGQKPNYIKRFASGGCDNLIKLWKEEEDGQWKEEQKLEAHSDWVRDVAWAPSIGLPTSTIASCSQDGRVFIWTCDDASSNTWSPKLLHKFNDVVWHVSWSITANILAVSGGDNKVTLWKESVDGQWVCISDVNKGQGSVSASVTEGQQNEQ
